Reference: publication PMC11741606 (2025)

Experiments:
[1] = biological target: T1, TGEV RBD (receptor-binding domain of the transmissible gastroenteritis coronavirus spike protein) (transmissible gastroenteritis …); test: SPR
T1 chain: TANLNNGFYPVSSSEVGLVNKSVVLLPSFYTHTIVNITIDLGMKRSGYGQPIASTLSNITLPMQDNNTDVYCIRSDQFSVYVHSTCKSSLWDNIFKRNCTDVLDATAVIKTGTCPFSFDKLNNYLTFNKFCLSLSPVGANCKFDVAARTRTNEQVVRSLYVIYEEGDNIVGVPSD

[2] = biological target: Arabian camel aminopeptidase N ectodomain fused with the Fc domain of human IgG (Arabian camel (Camelus dromedarius)); test: SPR

| Binder | Kd [1] | Kd [2] |
| --- | --- | --- |
| bovine aminopeptidase N ectodomain fused with the Fc domain of human IgG (Fc fusion, Wild type. Position 797 in the paper is dog APN alignment numbering, not bovine numbering. Limits from TOPO_DOM extracellular. hFc carrier omitted. N-glycosylated (HEK293T).) YAQEKNKNAERGTAAPTSPTGPTTTSATTLDQSKPWNRYRLPTTLLPDSYRVTLRPYLTPNNNGLYIFTGSSTVRFTCKEPTDVIIIHSKKLNYTQHSGHLAALKGVGDTQAPEIDRTELVLLTEYLVVHLKSSLEAGKTYEMETTFQGELADDLAGFYRSEYMDGNVKKVLATTQMQSTDARKSFPCFDEPAMKATFNITLIHPKDLTALSNMPPKGPSVPFDGDSNWSVTEFETTPVMSTYLLAYIVSEFTSVESVAPNDVQIRIWARPKATADNHGLYALNVTGPILNFFANHYNTAYPLPKSDQIALPDFNAGAMENWGLVTYRENALLYDPQSSSSSNKERVVTVIAHELAHQWFGNLVTLAWWNDLWLNEGFASYVEYLGADYAEPTWNLKDLMVPNDVYSVMAVDALVTSHPLTTPANEVNTPAQISEMFDTISYSKGASVIRMLSNFLTEDLFKKGLASYLQTFAYQNTTYLNLWEHLQMAVENQLSIRLPDTVSAIMDRWTLQMGFPVITVDTNTGTISQKHFLLDPNSTVTRPSQFNYLWIVPISSIRNGQPQEHYWLRGEERNQNELFKAAADDWVLLNINVTGYYQVNYDENNWKKIQNQLMSRRENIPVINRAQVIYDSFNLASAHMVPVTLALNNTLFLKNEMEYMPWQAAVSSLNYFKLMFDRTEVYGPMQNYLKNQVEPIFLYFENLTKNWTEIPENLMDQYSEINAISTACSNGLPKCEELAKTLFNQWMNNPNVNPIDPNLRSTIYCNAIAQGGQEEWDFAWNQLQQAELVNEADKLRSALACTNHVWLLNRYLSYTLNPDLIRKQDATSTITSIASNVIGQSLAWDFIRSNWKKLFEDYGGGSFSFSNLIQGVTRRFSTEFELQQLEEFKENNMDVGFGSGTRALEQALEKTKANINWVKENKEVVLNWFKDHS | 1660 nM | – |
| cat aminopeptidase N ectodomain fused with the Fc domain of human IgG (Fc fusion) YSQEKNRSTESSTAASTAAPTGPTTTVATTLDQSKPWNVYRLPKTLIPDSYNVTLRPYLTPNNKGLYVFTGTNIVRFTCKESTNIVIIHSKRLNYTSHQGHMVALSGVGGFHPQPVIVRTELVELTEYLVVHLQEPLVAGRQYEMNSEFQGELADDLAGFYRSEYMENGVKKVLATTHMQATEARKSFPCFDEPAMKATFNITIIHPNNLVALSNMLPRGPSVPFGEDPTWKVTEFETTPIMSTYLLAYIVSEFSYVETRAPSGVLIRIWARPSAINQGHGDYALKVTGPILDFFSQHYDTPYPLNKSDQIALPDFNAGAMENWGLVTYRESALLYDRQSSSSGNQERVVTVIAHELAHQWFGNLVTLEWWNDLWLNEGFASYVEYLGADFAEPTWNLKDLMVLNDVYRVMAVDALASSHPLSTPASEINTPAQISEVFDSISYSKGASVLRMLSNFLTEDLFKMGIASYLHTYKYGNTIYLNLWEHLQQVVDKQPTIKLPDTVSAIMDRWILQMGFPVITVDTQTGTISQQHFLLDPQSVVTRPSQFNYLWIVPISSVRSGSPQAHYWLPGVEKAQNDLFKTTANDWVLLNLNVTGYYLVNYDNENWKKIQTQLQTDLSVIPVINRAQVIHDAFNLASAQKVPVTLALNNTLFLIQETEYMPWQAALSSLSYFKLMFDRSEVYGPMKRYLKKQVTPLFNHFERVTKNWTDHPQTLMDQYSEINAVSTACSYGVPECEKLAATLFAQWKKNPQNNPIHPNLRSTVYCNAIAQGGEEEWNFVWEQFLKAELVNEADKLRGALACSNQVWILNRFLSYTLDPNLIRKQDVTSTLSSISSNVVGQTLVWDFVQSNWKKLFQDYGTGSFSFSNLIQAVTRRFSTEFELQQLEQFKKNNMDTGFGSATRALEQALEKTKANLKWVKENKDVVLRWFTENS | 35.6 nM | – |
| PDCoV RBD (receptor-binding domain of the porcine deltacoronavirus spike protein) (domain or fragment) VTLPKLPELEVVQLNISAHMDFGEARLDSVTINGNTSYCVTKPYFRLETNFMCTGCTMNLRTDTCSFDLSAVNNGMSFSQFCLSTESGACEMKIIVTYVWNYLLRQRLYVTAVEGQTHTGTTSVHATDTSSV | – | 10800 nM |
